B1: PSMB1157 conjugated to maleimide-PEG4-vcPAB-MMAF (ADC) (antibody, human IgG1, lambda, V domains shown)
VH: EVQLVESGGGVVQPGRSLRLSCAASVRTFSGYGMHWVRQVPGKGLEWVAVISYDGSNRYYADSVKGRFTISRDNSKNTLYLQMNSLRTEDTAVYYCARDGNWGSLDLYFDLWGRGTLVTVSS
VL: QSVLTQPPSVSGAPGQRVTISCTGSSSNIGADYDVHWYQQLPGTAPKLLIYVNNNRPSGVPDRFSGSRSGTSASLAITGLQADDEADYYCQSYDNTLSGVVFGGGTKLTVLG
modifications: reduced cysteines carry maleimide-PEG4-vcPAB-MMAF or N-ethyl maleimide; sites not given
B2: PSMB1157 conjugated to MC-GGFG-DX8951 (ADC) (antibody, human IgG1, lambda, DAR 8, V domains shown)
VH: EVQLVESGGGVVQPGRSLRLSCAASVRTFSGYGMHWVRQVPGKGLEWVAVISYDGSNRYYADSVKGRFTISRDNSKNTLYLQMNSLRTEDTAVYYCARDGNWGSLDLYFDLWGRGTLVTVSS
VL: QSVLTQPPSVSGAPGQRVTISCTGSSSNIGADYDVHWYQQLPGTAPKLLIYVNNNRPSGVPDRFSGSRSGTSASLAITGLQADDEADYYCQSYDNTLSGVVFGGGTKLTVLG
modifications: reduced cysteines carry MC-GGFG-DX8951; DAR 8.0
B3: PSMB1154 conjugated to maleimide-PEG4-vcPAB-MMAF (ADC) (antibody, human IgG1, lambda, V domains shown)
VH: EVQLVESGGGEVQPGRSLRLTCAVSGFTLSRYGMHWVRQAPGKGLEWAALISYDGSNRYYADSVKGRFTISRDNSKNTVFLQMNSLRAEDTAVYYCARERESSGWFEGYFDYWGQGTTVTVSS
VL: QLVLTQPPSVSVAPGQTARITCGGNNIGSKSVHWYQQKPGQAPVLVVYDNSDRPSGIPERFSGSNSGNTATLTISRVEVGDEADYYCQVWDSSSDHVVFGGGTKLTVLG
modifications: reduced cysteines carry maleimide-PEG4-vcPAB-MMAF or N-ethyl maleimide; sites not given
B4: PSMB1154 conjugated to MC-GGFG-DX8951 (ADC) (antibody, human IgG1, lambda, DAR 8, V domains shown)
VH: EVQLVESGGGEVQPGRSLRLTCAVSGFTLSRYGMHWVRQAPGKGLEWAALISYDGSNRYYADSVKGRFTISRDNSKNTVFLQMNSLRAEDTAVYYCARERESSGWFEGYFDYWGQGTTVTVSS
VL: QLVLTQPPSVSVAPGQTARITCGGNNIGSKSVHWYQQKPGQAPVLVVYDNSDRPSGIPERFSGSNSGNTATLTISRVEVGDEADYYCQVWDSSSDHVVFGGGTKLTVLG
modifications: reduced cysteines carry MC-GGFG-DX8951; DAR 8.0
B5: PSMB1156 conjugated to maleimide-PEG4-vcPAB-MMAF (ADC) (antibody, human IgG1, lambda, V domains shown)
VH: EVQLVESGGGVVQPGRSLRLSCAASGFTFTSYGMHWVRQAPGKGLEWVAVISYDGSNKYYADSVKGRFTISRDNSKNTLYLQMNSLRAEDTAVYYCAREHYDSSGYYHGYYGMDVWGQGTTVTVSS
VL: not shown
modifications: reduced cysteines carry maleimide-PEG4-vcPAB-MMAF or N-ethyl maleimide; sites not given
B6: PSMB1156 conjugated to MC-GGFG-DX8951 (ADC) (antibody, human IgG1, lambda, DAR 8, V domains shown)
VH: EVQLVESGGGVVQPGRSLRLSCAASGFTFTSYGMHWVRQAPGKGLEWVAVISYDGSNKYYADSVKGRFTISRDNSKNTLYLQMNSLRAEDTAVYYCAREHYDSSGYYHGYYGMDVWGQGTTVTVSS
VL: not shown
modifications: reduced cysteines carry MC-GGFG-DX8951; DAR 8.0
B7: PSMB1183 conjugated to maleimide-PEG4-vcPAB-MMAF (ADC) (antibody, human IgG1, lambda, V domains shown)
VH: QVQLQESGPGLVKSSETLSLTCTVSGGSISSYYWNWIRQPAGKGLEWIGRIYSSGNTDYNPSLKSRVTMSVDTSKNQFSLKLISVTAADTAVYYCARGRGANVGLFDYWGQGTLVTVSS
VL: QSALTQPPSVSGAPGQRVTISCTGSNSNIGANYDVHWYQHLPGTAPKLLIYGNINRPLGVPDRFSGSRSGTSASLAITGLQAEDEADYYCQSYDFSLSGSVFGVGTKLTVLG
modifications: reduced cysteines carry maleimide-PEG4-vcPAB-MMAF or N-ethyl maleimide; sites not given
B8: PSMB1183 conjugated to MC-GGFG-DX8951 (ADC) (antibody, human IgG1, lambda, DAR 8, V domains shown)
VH: QVQLQESGPGLVKSSETLSLTCTVSGGSISSYYWNWIRQPAGKGLEWIGRIYSSGNTDYNPSLKSRVTMSVDTSKNQFSLKLISVTAADTAVYYCARGRGANVGLFDYWGQGTLVTVSS
VL: QSALTQPPSVSGAPGQRVTISCTGSNSNIGANYDVHWYQHLPGTAPKLLIYGNINRPLGVPDRFSGSRSGTSASLAITGLQAEDEADYYCQSYDFSLSGSVFGVGTKLTVLG
modifications: reduced cysteines carry MC-GGFG-DX8951; DAR 8.0

Tests used:
[1] = biological target: T1, human PSMA (prostate-specific membrane antigen) on cells (human, UniProt Q04609 1-750); experiment: cell-based or functional assay
[2] = biological target: T1, human PSMA (prostate-specific membrane …); experiment: cell-based or functional assay; remark: listed apart in the source

T1 sequence (Q04609 whole entry): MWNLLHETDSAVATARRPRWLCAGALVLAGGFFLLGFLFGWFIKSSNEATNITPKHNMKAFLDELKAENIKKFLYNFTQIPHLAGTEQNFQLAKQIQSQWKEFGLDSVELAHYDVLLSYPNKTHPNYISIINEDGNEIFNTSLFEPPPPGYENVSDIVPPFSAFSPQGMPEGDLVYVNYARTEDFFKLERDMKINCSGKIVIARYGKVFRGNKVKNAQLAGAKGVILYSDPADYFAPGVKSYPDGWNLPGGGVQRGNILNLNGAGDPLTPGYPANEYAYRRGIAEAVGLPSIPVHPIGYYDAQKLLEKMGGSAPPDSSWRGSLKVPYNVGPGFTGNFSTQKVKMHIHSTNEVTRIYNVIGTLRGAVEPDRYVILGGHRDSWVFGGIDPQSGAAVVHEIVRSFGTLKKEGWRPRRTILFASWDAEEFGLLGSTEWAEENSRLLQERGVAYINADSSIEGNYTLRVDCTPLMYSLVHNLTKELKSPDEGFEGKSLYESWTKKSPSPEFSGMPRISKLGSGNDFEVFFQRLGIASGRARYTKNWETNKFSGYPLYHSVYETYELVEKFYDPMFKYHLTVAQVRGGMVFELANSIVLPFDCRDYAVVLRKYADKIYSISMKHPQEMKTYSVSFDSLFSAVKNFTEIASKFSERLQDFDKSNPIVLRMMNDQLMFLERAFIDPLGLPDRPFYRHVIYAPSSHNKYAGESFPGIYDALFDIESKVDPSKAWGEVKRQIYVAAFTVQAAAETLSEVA

Binder	C4-2B IC50 [1] [nM]	MMAF IC25 (nM), 22RV1 cells [2] [nM]	DX8951 IC50 (nM), 22RV1 cells [2] [nM]
B1	0.03	0.4	
B2			2.2
B3	0.03	0.1	
B4			0.8
B5	0.04	0.9	
B6			1.4
B7	0.03		
B8			0.7

Reference: US20230131727A1 (Janssen / Centocor, published 2023)
